These results are taken from patent publication US20230220589A1.

The target of test [1] is M44-modified D NTAA target peptides. Description: encoding assay; P2 D.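 Note: fraction of recording tags encoded.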
For test [2], the target named is M44-modified T NTAA target peptides. Description: encoding assay; P2 D.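 Note: fraction of recording tags encoded.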
Test [3] addresses M44-modified V NTAA target peptides. Description: encoding assay; P2 D.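 Note: fraction of recording tags encoded.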
The target in test [4] is M44-modified E NTAA target peptides. Description: encoding assay; P2 W.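 Note: fraction of recording tags encoded.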
Test [5] has as its target M44-modified L NTAA target peptides (M44-L-P2-peptide). The experiment in a line: Gini coefficient of P1 selectivity from multiplex encoding heatmap.
The target in test [6] is M17-modified E NTAA target peptides. The experiment in a line: encoding assay; P2 D.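 Note: fraction of recording tags encoded.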
Test [7] concerns the target M17-modified M NTAA target peptides. The experiment in a line: encoding assay; P2 D.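 Note: fraction of recording tags encoded.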
For test [8], the target named is M17-modified N NTAA target peptides. Description: encoding assay; P2 D.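 Note: fraction of recording tags encoded.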
The target of test [9] is M17-modified P NTAA target peptides. The experiment in a line: encoding assay; P2 D.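 Note: fraction of recording tags encoded.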
For test [10], the target named is M17-modified T NTAA target peptides. The experiment in a line: encoding assay; P2 D.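 Note: fraction of recording tags encoded.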
Test [11] deals with M17-modified A NTAA target peptides. Description: encoding assay; P2 F.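 Note: fraction of recording tags encoded.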
For test [12], the target named is M17-modified D NTAA target peptides. Description: encoding assay; P2 F.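 Note: fraction of recording tags encoded.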
Test [13] addresses M17-modified E NTAA target peptides. Description: encoding assay; P2 F.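 Note: fraction of recording tags encoded.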
The target of test [14] is M17-modified F NTAA target peptides. Description: encoding assay; P2 F.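 Note: fraction of recording tags encoded.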
Test [15] concerns the target M17-modified G NTAA target peptides. Description: encoding assay; P2 F.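 Note: fraction of recording tags encoded.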
In test [16] the target is M17-modified H NTAA target peptides. The experiment in a line: encoding assay; P2 F.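 Note: fraction of recording tags encoded.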
In test [17] the target is M17-modified I NTAA target peptides. The experiment in a line: encoding assay; P2 F.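 Note: fraction of recording tags encoded.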
The target of test [18] is M17-modified L NTAA target peptides. Description: encoding assay; P2 F.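 Note: fraction of recording tags encoded.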
Test [19] addresses M17-modified M NTAA target peptides. Description: encoding assay; P2 F.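 Note: fraction of recording tags encoded.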
Test [20] deals with M17-modified N NTAA target peptides. The experiment in a line: encoding assay; P2 F.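 Note: fraction of recording tags encoded.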
Test [21] has as its target M17-modified P NTAA target peptides. The experiment in a line: encoding assay; P2 F.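 Note: fraction of recording tags encoded.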
The target of test [22] is M17-modified Q NTAA target peptides. Description: encoding assay; P2 F.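 Note: fraction of recording tags encoded.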
In test [23] the target is M17-modified S NTAA target peptides. The experiment in a line: encoding assay; P2 F.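 Note: fraction of recording tags encoded.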
Test [24] concerns the target M17-modified T NTAA target peptides. The experiment in a line: encoding assay; P2 F.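 Note: fraction of recording tags encoded.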
In test [25] the target is M17-modified V NTAA target peptides. Description: encoding assay; P2 F.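 Note: fraction of recording tags encoded.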
In test [26] the target is M17-modified W NTAA target peptides. Description: encoding assay; P2 F.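 Note: fraction of recording tags encoded.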
Test [27] has as its target M17-modified Y NTAA target peptides (M17-Y-P2-peptide). Description: encoding assay; P2 F.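 Note: fraction of recording tags encoded.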
In test [28] the target is M17-modified A NTAA target peptides. The experiment in a line: encoding assay; P2 W.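 Note: fraction of recording tags encoded.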
For test [29], the target named is M17-modified D NTAA target peptides. Description: encoding assay; P2 W.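 Note: fraction of recording tags encoded.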
Test [30] deals with M17-modified E NTAA target peptides. Description: encoding assay; P2 W.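 Note: fraction of recording tags encoded.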
Test [31] deals with M17-modified F NTAA target peptides. Description: encoding assay; P2 W.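 Note: fraction of recording tags encoded.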
The target of test [32] is M17-modified G NTAA target peptides. The experiment in a line: encoding assay; P2 W.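 Note: fraction of recording tags encoded.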
The target of test [33] is M17-modified H NTAA target peptides. The experiment in a line: encoding assay; P2 W.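 Note: fraction of recording tags encoded.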
In test [34] the target is M17-modified I NTAA target peptides. The experiment in a line: encoding assay; P2 W.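 Note: fraction of recording tags encoded.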
Test [35] addresses M17-modified L NTAA target peptides. Description: encoding assay; P2 W.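 Note: fraction of recording tags encoded.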
The target in test [36] is M17-modified M NTAA target peptides. Description: encoding assay; P2 W.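 Note: fraction of recording tags encoded.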
The target in test [37] is M17-modified N NTAA target peptides. Description: encoding assay; P2 W.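 Note: fraction of recording tags encoded.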
In test [38] the target is M17-modified P NTAA target peptides. The experiment in a line: encoding assay; P2 W.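 Note: fraction of recording tags encoded.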
Test [39] deals with M17-modified Q NTAA target peptides. The experiment in a line: encoding assay; P2 W.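 Note: fraction of recording tags encoded.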
The target in test [40] is M17-modified S NTAA target peptides. Description: encoding assay; P2 W.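 Note: fraction of recording tags encoded.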
Test [41] concerns the target M17-modified T NTAA target peptides. The experiment in a line: encoding assay; P2 W.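 Note: fraction of recording tags encoded.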
The target of test [42] is M17-modified V NTAA target peptides. The experiment in a line: encoding assay; P2 W.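 Note: fraction of recording tags encoded.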
The target in test [43] is M17-modified W NTAA target peptides. The experiment in a line: encoding assay; P2 W.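 Note: fraction of recording tags encoded.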
For test [44], the target named is M17-modified Y NTAA target peptides (M17-Y-P2-peptide). Description: encoding assay; P2 W.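 Note: fraction of recording tags encoded.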
Test [45] concerns the target M17-modified D NTAA target peptides. Description: encoding assay; P2 Y.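 Note: fraction of recording tags encoded.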
The target in test [46] is M17-modified G NTAA target peptides. The experiment in a line: encoding assay; P2 Y.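 Note: fraction of recording tags encoded.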
Test [47] deals with M17-modified H NTAA target peptides. The experiment in a line: encoding assay; P2 Y.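 Note: fraction of recording tags encoded.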
For test [48], the target named is M17-modified I NTAA target peptides. Description: encoding assay; P2 Y.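 Note: fraction of recording tags encoded.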
The target in test [49] is M17-modified L NTAA target peptides. The experiment in a line: encoding assay; P2 Y.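 Note: fraction of recording tags encoded.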
Test [50] addresses M17-modified M NTAA target peptides. Description: encoding assay; P2 Y.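 Note: fraction of recording tags encoded.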
The target of test [51] is M17-modified N NTAA target peptides. The experiment in a line: encoding assay; P2 Y.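 Note: fraction of recording tags encoded.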
Test [52] addresses M17-modified P NTAA target peptides. Description: encoding assay; P2 Y.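 Note: fraction of recording tags encoded.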
Test [53] addresses M17-modified W NTAA target peptides. The experiment in a line: encoding assay; P2 Y.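 Note: fraction of recording tags encoded.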
The target in test [54] is M17-modified Y NTAA target peptides (M17-Y-P2-peptide). The experiment in a line: Gini coefficient of P1 selectivity from multiplex encoding heatmap.

B1: engineered M44-A binder (SEQ ID NO: 42) (designed binder, not shown: small tags and cut ends; large carriers)
chain: QVSVQPNFQQDKFLGRWFVAGLASNSSWDREKVAALSGAKMVVAPATDGGLNVTRTMLRKNQCETYTGLLQPAGSLGSYSWRSPHPGSTGSESVVETDYDQYALVYGQGSKGPGEDLRAAALWSRTQTPRAELKEKFTAFSKAQGFTEDTIVFLPQTDKCMTEQ
Regarding B1, the encoding yield in test [1] is 0.02; in [2] it was 0.01; in [3] it was 0.03; in test [4] it was 0.02.

B2: engineered M44-L binder (SEQ ID NO: 31) (designed binder, not shown: small tags and cut ends; large carriers)
chain: QDSTQNLIPAPPLISVPLQPGFWTERFQGRWFLVGFAGNAVQKERQSRLTMQSLILELQEDNSYNITAINVRGQGCRYIISTLVPSSRPGQFTLGNIHSYPQIQSLDVQVADTDYDQFAMVFLQGTSENKQYFEVALAGRTKGLSDELKERFVSFAKSLGLKDNNIVFSVPTDQCIDN
For B2, the encoding yield in [1] was found to be 0.01; in [2], 0.01; in test [3], 0.03; in test [4], 0.01. Further, in [5], the P1 score is 0.332.

B3: engineered M17-Y binder (SEQ ID NO: 61) (designed binder, not shown: small tags and cut ends; large carriers)
chain: TVPDRSEIAGKWYVVALASNTEFYLREKDWVKSAMARISFLGEDELKVSSAVPSPNGCYKVERTWKKTSDDGEVYNSRAAKLKVEVLDTDYKSYAVIYATRVKDGRTDHQMILYSRSPEVSPAATAIFRKLAGERNYTDEMVAMLPRQEECTVDEV
As to B3, the encoding yield in test [6] amounted to 0.02; in test [7], 0.02; in test [8], 0.02; in [9], 0.01; in test [10] it was 0.01; in test [11], 0.02. In addition, the encoding yield in test [12] was determined as 0.02; in test [13] it was 0.04; in test [14], 0.07; in test [15], 0.03; in [16] it was 0.03; in [17], 0.06. For the same molecule, the encoding yield in [18] was determined as 0.04; in [19] it was 0.03; in [20], 0.02; in [21] it was 0.01; in test [22], 0.02; in test [23], 0.02. Also, the encoding yield stood at 0.02 in [24]; 0.02 in test [25]; 0.05 in [26]; 0.2 in test [27]; 0.02 in test [28]; 0.02 in test [29]. Moreover, the encoding yield turned out to be 0.01 in [30]; 0.14 in test [31]; 0.01 in test [32]; 0.02 in [33]; 0.11 in test [34]; 0.03 in [35]. For the same molecule, the encoding yield in test [36] was determined as 0.02; in test [37], 0.02; in test [38], 0.03; in [39], 0.02; in test [40] it was 0.02; in [41], 0.01. For the same molecule, the encoding yield is 0.05 in [42]; 0.04 in [43]; 0.12 in test [44]; 0.03 in test [45]; 0.04 in test [46]; 0.06 in test [47]. The encoding yield in test [48] was determined as 0.1; in [49] it was 0.1; in test [50], 0.04; in test [51], 0.03; in test [52], 0.03; in [53] it was 0.07. In [54], this molecule had a P1 score of 0.196.

B4: upgraded binder after additional maturation round (SEQ ID NO: 62) (designed binder, not shown: small tags and cut ends; large carriers)
chain: TVPDRSEIAGKWYVVALASNTEFYLRGKDRVKSAMVRISFQGEDELKVSSAVPSPNGCYKVERTWKKTSDDGEVYNSRAAKLKVEVLDTDYKSYAVIYATRVKDRRTDHQMILYSRSPDVSPAATAIFRKLAGERNYTDEMVAMLPRQEECTVDEV
Turning to B4, the encoding yield is 0.02 in test [6]; 0.03 in test [7]; 0.03 in test [8]; 0.02 in test [9]; 0.01 in [10]; 0.04 in test [11]. The encoding yield worked out at 0.02 in test [12]; 0.04 in [13]; 0.1 in test [14]; 0.04 in test [15]; 0.04 in test [16]; 0.06 in test [17]. In addition, the encoding yield in test [18] stood at 0.05; in [19], 0.05; in test [20], 0.03; in test [21] it was 0.02; in test [22], 0.03; in test [23] it was 0.02. The encoding yield is 0.03 in test [24]; 0.02 in test [25]; 0.11 in test [26]; 0.28 in [27]; 0.04 in [28]; 0.04 in test [29]. Also, the encoding yield in test [30] is 0.01; in test [31], 0.18; in test [32] it was 0.02; in test [33], 0.04; in [34] it was 0.14; in test [35], 0.03. Also, the encoding yield in test [36] amounted to 0.04; in [37] it was 0.04; in [38] it was 0.03; in test [39], 0.03; in test [40] it was 0.06; in [41] it was 0.03. The encoding yield is 0.07 in test [42]; 0.1 in test [43]; 0.19 in test [44]; 0.03 in test [45]; 0.06 in test [46]; 0.06 in test [47]. Further, the encoding yield came to 0.12 in test [48]; 0.11 in test [49]; 0.02 in test [50]; 0.02 in [51]; 0.05 in test [52]; 0.12 in test [53]. In addition, the P1 score in test [54] was 0.204.

B5: engineered M44-L binder (SEQ ID NO: 21) (designed binder, not shown: small tags and cut ends; large carriers)
chain: QVSVQPNFQQDKFLGRWFYAGHASNSSWYREKVAALSMAKLVVAPATDGGLNATETFLRKNQCETITSLLQPAGSLGSYSSRSPHGGSTWSTSVVETDYDQYALLYLQGSKGPGEDFRGAILASRTQTPRAELKEKFTAFSKAQGFTEDTIVFLPQTDKCMTEQ
In turn, B5 yielded a P1 score in [5] of 0.412.
